Holding throughout (details): both partners purified
Test [1] has as its target T1, KIX domain of CREB-binding protein (residues 586–672 of mouse CBP) (mouse, UniProt P45481 586-672).
T1 construct: KIX domain, residues 586-672 of mouse CBP; 6xHis-tag and thrombin cleavage site at the N-terminus; source: E. coli BL21(DE3)pLysS, purified (Ni-NTA, gel filtration on Superdex 200 pg)
In words: fluorescence polarisation; 0–100 μM KIX titrated into 25 nM FITC-labeled peptide; 30 °C; 20 mM sodium phosphate pH 7.0, 100 mM NaCl, 0.005% Tween 20.

Test [2] has as its target T1, KIX domain of CREB-binding protein …. Description: ITC; 600 μM MLL solution titrated into the cell containing 45 µM KIX; 30 °C; 20 mM Tris–acetate pH 7.0, 50 mM NaCl; one-site binding model.
Test [3] shares this target. Description: SPR; competition: mixture of KIX (5 μM) and inhibitor (0.27–200 μM) injected over immobilised His-tag–GB1–MLL TAD; 30 °C; 20 mM sodium phosphate pH 7.0, 100 mM NaCl, 0.05% Tween 20.
For test [4] the target is unchanged. In words: SPR; His-tag–GB1–MLL TAD immobilised on CM5 by amine coupling (77.9 RU); KIX 0.04–30 μM injected; 30 °C; 20 mM sodium phosphate pH 7.0, 100 mM NaCl, 0.05% Tween 20; equilibrium analysis.
Test [5] has the same target. In words: fluorescence polarisation; competition: inhibitor (0–200 μM) titrated into a mixture of KIX (2 μM) and FITC-MLL (25 nM); 30 °C; 20 mM sodium phosphate pH 7.0, 100 mM NaCl, 0.005% Tween 20.
Test [6] shares this target. Description: fluorescence polarisation; competition: inhibitor (0–200 μM) titrated into a mixture of KIX (2 μM) and FITC-Myb (25 nM); 30 °C; 20 mM sodium phosphate pH 7.0, 100 mM NaCl, 0.005% Tween 20.

Where no end group is shown, it is not given here. The star is where a group is joined. FITC = O=C1OC2(c3ccc(O)cc3Oc3cc(O)ccc32)c2ccc(NC(=S)*)cc21; βAla = NCCC(=O)O

T1 sequence (P45481 586-672): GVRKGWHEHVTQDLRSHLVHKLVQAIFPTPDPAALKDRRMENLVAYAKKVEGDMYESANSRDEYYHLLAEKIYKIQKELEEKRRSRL

B1: FITC-labeled c-Myb TAD peptide (peptide)
peptide: {FITC-βAla}-GYNDEDPEKEKRIKELELLLMSTENELKGQQAL
notes: first residue of the printed peptide; as far as I recall not a residue of c-Myb at this position; c-Myb TAD; 33 residues as printed; also called FITC-Myb; source: synthetic peptide, bought: Biologica Co
For B1, the binding result in test [1] is reported as “binds”.

B2: His-tag–GB1–MLL TAD (wild type) (peptide)
chain: GNILPSDIMDFVLKNTPSMQALGESPESY
notes: MLL TAD, residues 2842-2869 of human MLL; Tyr residue attached at the C-terminus for concentration determination by UV absorption; Used in ITC and immobilised in SPR; also called wild-type MLL TAD; WT; source: E. coli BL21(DE3), purified (Ni-NTA); not shown: His6, N-terminal, kept
Regarding B2, in test [2], binding was put at a Kd of 2.02 µM, the dH was -13.1 kcal/mol and the “stoichiometry N” value worked out at 1.02. Further, the IC50 in test [3] stood at 10.4 µM. Also, the Kd in test [4] amounted to 4.94 µM.

B3: His-tag–GB1–MLL TAD K2855R/T2857W (peptide)
chain: GNILPSDIMDFVLRNWPSMQALGESPESY
notes: MLL TAD, residues 2842-2869 of human MLL, with the substitutions; Tyr residue attached at the C-terminus for concentration determination by UV absorption; also called K2855R/T2857W double mutant; source: E. coli BL21(DE3), purified (Ni-NTA); not shown: His6, N-terminal, kept
As for B3, in test [2], binding was characterised by a dissociation constant (Kd) of 1.04 µM, the dH was -12.2 kcal/mol and the “stoichiometry N” value is 1.04.

B4: His-tag–GB1–MLL TAD T2857L (peptide)
chain: GNILPSDIMDFVLKNLPSMQALGESPESY
notes: MLL TAD, residues 2842-2869 of human MLL, with the substitution; Tyr residue attached at the C-terminus for concentration determination by UV absorption; source: E. coli BL21(DE3), purified (Ni-NTA); not shown: His6, N-terminal, kept
In the case of B4, in test [2], binding was characterised by a dissociation constant (Kd) of 1.9 µM, the dH is -10.5 kcal/mol and the “stoichiometry N” value is 1.05.

B5: His-tag–GB1–MLL TAD T2857F (peptide)
chain: GNILPSDIMDFVLKNFPSMQALGESPESY
notes: as for B4
Take B5: in test [2], binding was characterised by a dissociation constant (Kd) of 2.1 µM, the dH is -11.1 kcal/mol and the “stoichiometry N” value turned out to be 1.07.

B6: His-tag–GB1–MLL TAD T2857A (peptide)
chain: GNILPSDIMDFVLKNAPSMQALGESPESY
notes: as for B4
B6: in test [2], the dissociation constant (Kd) stood at 2.62 µM, the dH was -11.8 kcal/mol and the “stoichiometry N” value turned out to be 1.03.

B7: MLL TAD peptide T2857I without His-tag–GB1 (peptide)
chain: GNILPSDIMDFVLKNIPSMQALGESPESY
notes: MLL TAD, residues 2842-2869 of human MLL, with the substitution; Tyr residue attached at the C-terminus for concentration determination by UV absorption; One of the four mutants used without His-tag–GB1 in ITC as well as in CD; source: E. coli BL21(DE3), purified (Ni-NTA, thrombin digestion on the column, anion exchange); not shown: His6, N-terminal, cleaved
In the case of B7, in test [2], the Kd amounted to 2.4 µM, the dH is -10 kcal/mol and the “stoichiometry N” value came to 1.04.

B8: MLL TAD peptide K2855R without His-tag–GB1 (peptide)
chain: GNILPSDIMDFVLRNTPSMQALGESPESY
notes: as for B7
In the case of B8, in test [2], binding was put at a Kd of 1.5 µM, the dH was -13.8 kcal/mol and the “stoichiometry N” value came out at 0.94.

B9: MLL TAD peptide D2851L without His-tag–GB1 (peptide)
chain: GNILPSDIMLFVLKNTPSMQALGESPESY
notes: as for B7
For the molecule B9, in test [2], binding was characterised by a dissociation constant (Kd) of 4.8 µM, the dH is -8.8 kcal/mol and the “stoichiometry N” value was 1.02.

B10: His-tag–GB1–MLL TAD T2857Y (peptide)
chain: GNILPSDIMDFVLKNYPSMQALGESPESY
notes: as for B4
As to B10, in test [2], the Kd amounted to 2.28 µM, the dH is -12.3 kcal/mol and the “stoichiometry N” value is 1.02.

B11: His-tag–GB1–MLL TAD T2857R (peptide)
chain: GNILPSDIMDFVLKNRPSMQALGESPESY
notes: as for B4
With B11, in test [2], the affinity, expressed as Kd, was 3 µM; the dH is -12.6 kcal/mol; the “stoichiometry N” value is 1.03.

B12: His-tag–GB1–MLL TAD T2857W (peptide)
chain: GNILPSDIMDFVLKNWPSMQALGESPESY
notes: MLL TAD, residues 2842-2869 of human MLL, with the substitution; Tyr residue attached at the C-terminus for concentration determination by UV absorption; Used in ITC; also called designed T2857W peptide; T2857W mutant of the MLL TAD peptide; source: E. coli BL21(DE3), purified (Ni-NTA); not shown: His6, N-terminal, kept
Take B12: in test [2], the Kd was 0.95 µM, the dH was -12.8 kcal/mol and the “stoichiometry N” value turned out to be 1.02. Besides, the IC50 in test [3] amounted to 5.67 µM.

B13: His-tag–GB1–MLL TAD K2855R/T2857L (peptide)
chain: GNILPSDIMDFVLRNLPSMQALGESPESY
notes: MLL TAD, residues 2842-2869 of human MLL, with the substitutions; Tyr residue attached at the C-terminus for concentration determination by UV absorption; also called K2855R/T2857L double mutant; source: E. coli BL21(DE3), purified (Ni-NTA); not shown: His6, N-terminal, kept
B13: in test [2], the Kd was determined as 1.72 µM, the dH is -9.5 kcal/mol and the “stoichiometry N” value was 1.09.

B14: His-tag–GB1–MLL TAD T2857K (peptide)
chain: GNILPSDIMDFVLKNKPSMQALGESPESY
notes: as for B4
Take B14: in test [2], the Kd came out at 4.9 µM, the dH is -11.7 kcal/mol and the “stoichiometry N” value was determined as 1.02.

B15: designed T2857W peptide used as inhibitor in fluorescence polarization (peptide)
chain: GNILPSDIMDFVLKNWPSMQALGESPESY
notes: MLL TAD, residues 2842-2869 of human MLL, with the substitution; Tyr residue attached at the C-terminus for concentration determination by UV absorption; also called designed peptide; source: E. coli BL21(DE3), purified (Ni-NTA)
With B15, the results for the IC50 in test [5] and in test [6] were 3.48 µM and 16 µM, respectively.

B16: MLL TAD peptide I2849L without His-tag–GB1 (peptide)
chain: GNILPSDLMDFVLKNTPSMQALGESPESY
notes: as for B7
For B16, in test [2], the Kd came out at 2.8 µM, the dH is -12.3 kcal/mol and the “stoichiometry N” value came out at 0.947.

B17: wild-type MLL TAD peptide used as inhibitor in fluorescence polarization (peptide)
chain: GNILPSDIMDFVLKNTPSMQALGESPESY
notes: MLL TAD, residues 2842-2869 of human MLL; Tyr residue attached at the C-terminus for concentration determination by UV absorption; also called wild-type peptide; WT; source: E. coli BL21(DE3), purified (Ni-NTA)
Take B17: the IC50 in test [5] amounted to 7.1 µM; in test [6], 36 µM.

The values are drawn from article PMC10113271, “Rational peptide design for inhibition of the KIX–MLL interaction” (Scientific Reports, 2023).
